Assay: yeast display, Sf9 membrane polyspecificity reagent, FACS + sequencing; frameworks hold sequencing errors
Outline: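 Synthetic nanobody libraries on Saccharomyces cerevisiae BJ5465 were galactose-induced for 36–48 hours, stained 1 hour at 4 °C with 10% biotinylated, detergent-solubilized Sf9 membrane reagent and enriched on streptavidin microbeads. FACS then separated cells into low and high (top ~1%) gates by anti-HA (expression) and streptavidin (reagent binding) fluorescence. Genes were colony-PCR amplified, MiSeq 2 × 250 sequenced and CDR-length filtered. A clone's polyreactivity label is that of its gate of origin.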

| Sequence | polyreactivity (PSR sort gate) |
| --- | --- |
| QVQLVESAGGLVQAGGSLRLSCAASGSTFTYKGMGWYRQAPGKERELVASISSRGGSTYYADSVKGRFTISRDNAKNTVYLQMNSLKPDDTAVYYCAAVARARARTPWLGRGYWGQVTQVTVSS | high polyreactivity |
| QVQLVESGGGLVQAGGSLRLSCAASGRTFRAYAMGWYRQAPGKERELVARISWSGGNTYYADSVKGRFTISRDNAKNTVYLQMNSLKPEDTAVYYCAKTYYPYPAQIYTGYSWGQGTQVTVSS | low polyreactivity |
| QVQLVESGGGLVQAGGSLRLSCAASGFTFGWNAMGWYRQAPGKERELVAAISWSGGSTYYADSVKGRFTISRDNAKKTVYLQMNSLKPEDTAVYYCAAYPAYGGDYWGQGTQVTVSS | high polyreactivity |
| QVQLVESGGGLVQAGGSLRLSCAASGFIFQKYAMGWYRQAPGKERELVAAIRYDGGSTYYADSVKGRFTISRDNAKNTVYLQMNSLKPDDTAVYYCAAYGPRLLIYPPYRYNYWGQGTQVTVSS | high polyreactivity |
| QVQLQESRGGLVQAVRSLRLSCAASGTILYSLGMGWYRQAPGKRREFVASITRGTTTNYAESVKGRFTISRDNAKKTVYPQMNSLKAEDTGVSFCAGPPFGVSSYDYWGQGNQVTVSS | low polyreactivity |
| QVQLVESGGGLVQAGGSLRLSCSASGYISHYAMGWYRQAPGKERELVAAISRRGGSTYYADSVKGRFTISRDNAKNTVYLQMNSLKPEDTAVYYCNKATSYFTVRGYDYCGQGTQVTVSS | high polyreactivity |
| QVQLVESGGGLVQAGGSLRLSCAASGRIFFTNAMGWYRQAPGKERELVAAIRSSGGRTYYADSVKGRFTISRDNAKNTVYLQMNSLKPEDTAVYYCNVVDGRHISHYNYWGQGTQVTVSS | high polyreactivity |
| QDQHGESGGGLVQAGGRLRLSGAASGSTFPGNAMGWYRQAPGKERELVAAITSGGRTYYADSVKGRFTISRDNAKNTVYLQMNSLKPEDTAVYYCAVSTPIQRHGETYAKFDYWGQGTQVTVSS | low polyreactivity |
| QVQLVESGGGLVQAGGSLRLSCAASGIIFDYNAMGWYRQAPGKERELVAAITWSGSSTFYADSVKGRFTISHDNAKNTVYLLMNSLKPEDTAVYYCNAEYYWGTYANFDYWGQGTQVTVSS | low polyreactivity |
| QVQLVESGGGLVQAGGSLRLSCAASGFTFRYYAMGWYRQAPGKERELVASITGGGRTYYADSVKGRFTISRDNAKNTVYLQMNSLKPEDTAVYYCATLLAYRLGSGYDSWGQGTQVTVSS | high polyreactivity |
| QVQLVESGGGLVQAGGSLRLSCAASGGIFVRYAMGVYRQAPGKERELVAAITGTGSSTYYADSVKGRFTISRDNAKNTVYLQMNSLKPEDTAVYYCAAARYSNYGYWGQGTQVTVSS | high polyreactivity |
| QVQLVESGGGLVQAGGSLRLICAASGTFTSNAMGWYRQAPGKERELVAVITSTDSTNYADSVKGRFTISRDNAKNTVYLPLNSLKPEDTAVYYCAGSKYTVVQQYWDVLFDYWGQGTQVTVSS | low polyreactivity |
| QFQLVESGGGLVQAGGSLRLSCAASGRIFNGNAMGLYRQAPGKERELVAASTSDGSTYADSVKGRFTISRDNAKNTVYLQMNSLKPEDTAVYYCNRDGYTNSRGYEFYYWGQGTQVTVSS | low polyreactivity |
| QVQLVESGGGLVQAGGSLRLSCAASGRILPYYAMGWYRQEPGKERELVAAITGGGGSTYYADSVKGRFTISRDNAKNTVYLQMNSLKPEDTAVYYCAKPRGRASLALYRFSLYYYWGQGTQVTVSS | high polyreactivity |
| QVQLVESGGGLVQAGGSLRLSCAASGITFVHNVMGWYRQAPGKDRELVAAINSGGRTYYADSVKGRFTISRDNAKKTVYLQMNSLKPEDSAVYYCAALGDKRGGGHYWGQGTQVTVSS | high polyreactivity |
| QVQLVESGVCLVQAGGSLLLSCAASRRIFRNAMGWYRHAPGKERELVAAISSGGTTNYADSVKGRFTISRDNAKNTVYLLMNSLKPEDTAVYYCAAAPSSYRYRYVVFTFGYWGQGTQVTVSS | high polyreactivity |
| QVQLVESGGGLVQAGGSLRLSCAGSGFTFSSYTIGWYRQAPGKEREFVASISSGGSTNYADSVKGRFTISRDNAKNTVYLQMNSLKPEDTAVYYCAAGTTGITFFDVGSGYDYWGQGTQVTVSS | low polyreactivity |
| QVQLVESGGGLVQAGGSLRLSCAASGGIFDINAMGWYRQAPGKERELVAAITQSGGSTYYADSVKGRFTISRDNAKKTVYLQMNSLKPEDTAVYYCAKAVWYQGFDYWGQGTQVTVSS | high polyreactivity |
| QVQLVESGGDLVQAGGSLRLSCAASGITFVYNAMGWYRQAPGKESELVAGITWSGSSTYYADSVKGRFTISRDNAKNTVYFQMNSLKPEDTAVYYCAAYLYERTTRYRVYLQWKHGYWGQGTQVTVSS | high polyreactivity |
| QVQLVESGGGLVQAGRSLRLICAASGRILVPYTMGWYRQAPGKERDLVAAITIGGRTTYADSVKGRLTISRDNAKNTLYLQMNIMKPEDTAVYYCAKRDWRYEWYGYDYWGQGTQVTVSS | low polyreactivity |
| QVQLVESGGGLVQAGGSLRISCAASGSIFWRYVMGWYRPAPGKERELIAAISSGGGITYYADSVKGRFTISRDNAKNTVYLQMNSLKPEDTAVYYCAARTYRGQYYTGFGFGYWGQGSQVTVSS | high polyreactivity |
| QVQLVESGGGLVQAGGSLRLSCAASGRTFPFYAMGWYRPAPGTERELVASIRGGGGTNYADSVKGRFTISRDNAKNTVYLQMNSLKPEDTAVYYCAARGYGYRGYYYWGQGTQVTVSS | high polyreactivity |

| Sequence | polyreactivity (PSR sort gate) |
| --- | --- |
| QVQLVESGGGLVQAGGSLRLSCAASGRTFKYNAMGWYRQAPGKERELVAVISRSTGRTYYADSVKGRFTISRDNAKNTFYLQMNSLKPEDTAVYSCNRVSRQYYYQRGFEYDYWGQGTQVTVSS | high polyreactivity |
| QVQLVESGGGLVQAGGSLRLSCAASGSTFSANTMGWYRQAPGKQREFVAAISSSGVGTRYADSVKGRFTISRDYAKNTVYLQMNSLKPEDTAVYYCAADYRPTVITRNDYWGQGTQVTVSS | low polyreactivity |
| QVQLVESGGGLVQAGGSLRLSCSASGSIFAIYTMGWYRQAPGTERELVAAISSRGDSTYYADSVKGRFTISRDNAKNTVYLQMNSLKPEDTAVYYCATRGDGVLGRRGYYWGQGTQVTVSS | high polyreactivity |
| QVQLVESGGGLVQAGGSLRLSCAASGRTFRANAMGWYRQAPGKERELFAAISYSGGRTRYADSVKGRFTISRDNAKNTVYLQMNSLKPEDTAVYYCNRVIPTQSLRDAPGLHQVGYWGQGTQVTVSS | high polyreactivity |
| QVQLVESGGGLVQAGGSLRLSCAASGLTLVTYAMGWYRQAPGNERELVAAINSGGSTNYADSVKGRFTISRDNAKNTVYLQMNSLKPEDTAVYYCNADRVSPATYDYWGQGTQVTVSS | low polyreactivity |
| QVQLVESGGGLVQAGGSLRLSCAASGITLYDNAMGWYRQAPGKERELVAAINVNDVSTYYADSVKGRFTISRDNAKNTVYLQKNSLKPEDTAVYYCAADSLYYGIGYWVVRYDYWGQGTQVTVSS | low polyreactivity |
| QVQHVESGGGLVQAGRSLRLSCAASGFTIVQYAMGWYRQAPGKERELVARISPIGGSTYYADSVKGRFTISRDNAKNTVYLQMNSLKPEDTAVYYCNALRGPVKYYYWGQGTQVTVSS | low polyreactivity |
| QVQLVESGGGLVQAGGSLRLSCAASGIIFSYYARGWYRQAPGKDRELVAAISSSGVSTNYADSVKGRFTISRDNAKNTVYLQMTSLKPEDTAVYYCAADYGSWSNWGYEYWGQGTQVTVSS | high polyreactivity |
| QVQLVESGGGLVQAGGSLRLSCAASGNIFFSNAMGWYRQAPGKERELLASISQSGGSTYYADSVKGRFTISRDNAKNTVYLQMNSLKPEDTAVYYCAATQVRRGPAWGRDYWGQGTQVTVSS | low polyreactivity |
| QVQLVESGGGLVQAGGSLRLSCAASGFTFYIYAMGWYRQAPGKERELVASISARGGSTYYADSVKGRFTISRDNAKNTVYLQMNSLKPEDTAVYYCNALYNYAEIYGRGYWGQGTQVTVSS | high polyreactivity |
| QVQLVESGGRLVQAGGSLRLSCAASGSTFAANAMGRYRQDPGKDRELVAGITSSGGSTYYADSVKGRFTISRDNAKNTDYLQLTSLKPEDNAVYYCNKDNARYVRMYDSWGQGTQVTVSS | low polyreactivity |
| QVQLVESGGGLVQAGGSLRLSCAASGRIFPTNAMGWYTQAHGKEREFVSAITWRGGSTYYADSVKGRFTISRDNAKNTVYLQMNSLKPEDTAVYYCAATGHIVFFRADDYGYWGQGTQVTVSS | low polyreactivity |
| QVQLVESGGGLVQAGGSLRLSCAASGFIFSDNAMGWYRQAPGKERELVSAITDDGDTTYYADSVKGRFTISRDNAKNTVYLQMNSLKPEDTAVYYCATEIEDDESSGPYYYVGYGYWGQGTQVTVSS | high polyreactivity |
| QVQLVESGGGLVQAGGSLRLSCAASGSTFKPYTMGWYRPAPGKERELVAAISSVDSTYYADSVKGRFTISRDNAKKTVYLQMNSLKPEDTAVYDCNKRKSPTFTYAMNYWGQGTQGTVSS | low polyreactivity |
| QVQLVESGGGLVQAGGSLRLSCAASGRTFYYYDMGWYRQAPGKERELVAAIRRSGGSTYYADSVKGRFTISRDNAKNTVYLQMNSLKPEDTAVYYCAAGRRYSGSYDYRGQGTQVTVSS | high polyreactivity |
| QVQLLESGGGLVQAGRSLRLSCAASGRIFRYYAMGWYRQAPGKERELVAAISYSTGGTSTYADSVKGRFTISRDNAKTTVYLQMNSLKPEDTAVYYCAVRRQYRRAYSFSQSRYDYWGQGTQVTVSS | high polyreactivity |
| QVQLVESGGGLVQAGGSHRLSSAASGGIFGKYAMGWYRQAPGKEMDLVAAITWNGGRTYYADSVKGRFTISRDNAKYTLYLQMNSLKPVDTAVHFCAVDDAYPDRYDYWGQGSQVTVSS | high polyreactivity |
| QVQHVESGGGLVLAGGSLRLSCAASGRTFAYNAMGWYRQAPGKERELVAAISRSGGSTYYADSVKGRFTISRDNPKNTVYLQMYSLKPEDTAVYYSNKVTHSYVYFAAGDYWGQGTQVTVSS | high polyreactivity |
| QVQLVESCGGLVQAGGSLRLSCAASRSTFVKYTMGWYRQAPGKERELVATITWSGGSTYYADSVKGRFTISRDNAKNTVYLQLMSLKPEDTAVYYGAIDSGVYRTYQGRWYYYTDFYWGQGTQVTVSS | low polyreactivity |
| QVQLVESGGGLVQAGGSLRLSCAASGRIFRWYAMGWYRQAPGKERELVATITRSGGSTYCADSVKGRFTISRDNAKNTVYLQMNSLKPEDTAVYYCAARWRLTPSWLPYVQSSAGYDYWGQGTQVTVSS | high polyreactivity |
| QVQLVESGGGLVQAGGSLRLSSAASGSTFHNYAMRWSRQAPGNEREWVASIRLIGGSTYYADSVKGRFTISRDNAKNTVYLQMNSLKPEDTAVYYCAATSTDRSYLEYDYWGQGTQVTVSS | low polyreactivity |

Source: the nanobody polyreactivity screen of Harvey et al. (2022)
